Laboratory results reported in patent US7307143 (MAX DELBR CK INSTITUT FUR MOLEKULARE HEDIZIN, dated 2007).

Molecular target: T1, Adenomatosis Polyposis Coli (APC) (UniProt P25054 2-2843, limits assumed)
T1 construct: Stands for 'APC' where the sentence names no fragment; also called tumor suppressor protein APC
Test: yeast 2-hybrid, partial pieces of conductin

T1 sequence (P25054 2-2843 limits assumed): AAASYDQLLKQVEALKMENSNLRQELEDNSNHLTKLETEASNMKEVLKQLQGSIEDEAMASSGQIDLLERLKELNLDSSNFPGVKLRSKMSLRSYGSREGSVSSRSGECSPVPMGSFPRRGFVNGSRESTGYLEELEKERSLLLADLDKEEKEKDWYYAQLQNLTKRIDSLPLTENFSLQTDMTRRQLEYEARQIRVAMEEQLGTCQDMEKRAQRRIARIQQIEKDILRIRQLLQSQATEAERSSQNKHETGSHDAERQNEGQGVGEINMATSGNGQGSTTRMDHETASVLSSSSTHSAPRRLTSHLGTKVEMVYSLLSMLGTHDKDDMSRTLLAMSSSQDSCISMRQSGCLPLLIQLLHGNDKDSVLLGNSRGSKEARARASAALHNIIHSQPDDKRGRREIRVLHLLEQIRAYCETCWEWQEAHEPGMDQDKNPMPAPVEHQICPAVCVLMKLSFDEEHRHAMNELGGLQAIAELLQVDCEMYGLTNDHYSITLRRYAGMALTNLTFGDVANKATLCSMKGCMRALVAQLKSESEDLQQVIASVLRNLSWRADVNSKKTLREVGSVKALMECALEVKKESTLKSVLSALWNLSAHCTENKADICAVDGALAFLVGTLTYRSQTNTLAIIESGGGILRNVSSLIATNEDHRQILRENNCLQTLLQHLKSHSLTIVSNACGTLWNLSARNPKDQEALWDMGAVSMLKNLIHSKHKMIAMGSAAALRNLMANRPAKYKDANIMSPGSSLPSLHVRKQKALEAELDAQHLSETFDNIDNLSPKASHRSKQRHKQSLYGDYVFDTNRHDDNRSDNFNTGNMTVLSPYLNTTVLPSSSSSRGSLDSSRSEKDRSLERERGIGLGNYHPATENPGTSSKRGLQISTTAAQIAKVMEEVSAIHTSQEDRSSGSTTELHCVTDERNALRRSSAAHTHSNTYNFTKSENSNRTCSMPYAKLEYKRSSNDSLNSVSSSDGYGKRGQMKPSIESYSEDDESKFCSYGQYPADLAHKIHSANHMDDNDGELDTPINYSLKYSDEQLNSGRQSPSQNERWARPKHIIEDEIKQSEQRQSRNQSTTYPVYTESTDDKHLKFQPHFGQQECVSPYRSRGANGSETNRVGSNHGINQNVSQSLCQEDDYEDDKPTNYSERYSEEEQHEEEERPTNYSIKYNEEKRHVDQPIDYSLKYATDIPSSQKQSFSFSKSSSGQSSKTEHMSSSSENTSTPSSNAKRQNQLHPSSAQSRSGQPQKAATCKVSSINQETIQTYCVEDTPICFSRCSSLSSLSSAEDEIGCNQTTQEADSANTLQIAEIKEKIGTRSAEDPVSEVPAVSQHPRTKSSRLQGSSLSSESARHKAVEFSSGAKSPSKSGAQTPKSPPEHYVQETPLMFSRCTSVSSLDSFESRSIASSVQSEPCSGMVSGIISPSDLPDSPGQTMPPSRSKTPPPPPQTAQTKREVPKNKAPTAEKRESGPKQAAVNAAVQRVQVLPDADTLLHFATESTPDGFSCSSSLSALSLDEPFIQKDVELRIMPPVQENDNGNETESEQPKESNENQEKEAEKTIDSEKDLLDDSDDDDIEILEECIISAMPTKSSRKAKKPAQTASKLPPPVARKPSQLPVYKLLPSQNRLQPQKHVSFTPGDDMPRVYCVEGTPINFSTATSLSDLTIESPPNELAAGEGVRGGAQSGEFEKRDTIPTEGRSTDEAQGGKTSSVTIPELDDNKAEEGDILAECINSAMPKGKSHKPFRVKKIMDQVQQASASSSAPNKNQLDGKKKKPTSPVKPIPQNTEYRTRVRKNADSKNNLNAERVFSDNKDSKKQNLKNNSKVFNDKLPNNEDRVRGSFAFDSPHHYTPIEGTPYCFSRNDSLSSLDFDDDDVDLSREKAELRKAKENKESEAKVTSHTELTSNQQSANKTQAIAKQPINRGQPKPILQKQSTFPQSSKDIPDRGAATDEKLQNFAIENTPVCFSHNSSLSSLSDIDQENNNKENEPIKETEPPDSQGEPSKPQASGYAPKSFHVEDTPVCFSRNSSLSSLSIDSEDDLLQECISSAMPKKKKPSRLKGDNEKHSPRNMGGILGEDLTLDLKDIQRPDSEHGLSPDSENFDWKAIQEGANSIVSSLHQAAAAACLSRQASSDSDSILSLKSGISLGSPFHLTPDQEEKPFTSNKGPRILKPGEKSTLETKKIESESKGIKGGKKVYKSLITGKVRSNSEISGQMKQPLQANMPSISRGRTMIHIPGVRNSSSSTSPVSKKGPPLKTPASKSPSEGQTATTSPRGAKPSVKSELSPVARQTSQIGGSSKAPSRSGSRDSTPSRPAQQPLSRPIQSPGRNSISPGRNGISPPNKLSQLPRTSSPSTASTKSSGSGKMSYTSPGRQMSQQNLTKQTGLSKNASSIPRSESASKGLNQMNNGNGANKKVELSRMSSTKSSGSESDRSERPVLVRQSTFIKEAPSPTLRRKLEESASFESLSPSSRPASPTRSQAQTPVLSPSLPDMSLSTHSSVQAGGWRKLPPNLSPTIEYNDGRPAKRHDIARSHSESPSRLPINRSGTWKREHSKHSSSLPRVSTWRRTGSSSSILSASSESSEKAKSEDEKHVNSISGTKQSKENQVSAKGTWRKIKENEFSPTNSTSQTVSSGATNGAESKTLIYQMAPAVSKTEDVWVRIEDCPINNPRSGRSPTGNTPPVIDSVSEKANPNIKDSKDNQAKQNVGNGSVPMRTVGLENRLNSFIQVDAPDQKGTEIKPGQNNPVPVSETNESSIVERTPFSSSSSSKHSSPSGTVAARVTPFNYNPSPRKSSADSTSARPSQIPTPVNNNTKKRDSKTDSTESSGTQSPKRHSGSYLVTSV

B1: conductin GSK 3b-binding domain (amino acids 343-396) (other)
chain: ANGQVSLPHFPRTHRLPKEMTPVEPAAFAAELISRLEKLKLELESRHSLEERLQ
notes: also called GSK BD
B1: no binding.

B2: conductin β-catenine binding domain (amino acids 397-465) (other)
chain: QIREDEEKEGSEQALSSRDGAPVQHPLALLPSGSYEEDPQTILDDHLSRVLKTPGCQSPGVGRYSPRSR
notes: also called b-BD
B2: no binding.

B3: conductin disheveled homology region (amino acids 783-833) (other)
chain: LTLGHFKEQLSKKGNYRYYFKKASDEFACGAVFEEIWDDETVLPMYEGRIL
B3: no binding.
